± gives the uncertainty stated by the source.
B1: GA-binding protein alpha chain, residues 172 to 250; numbered along this chain, Q06546 (parent)
chain: GYRKEQERLGIPYDPIQWSTDQVLHWVVWVMKEFSMTDIDLTTLNISGRELCSLNQEDFFQRVPRGEILWSHLELLRKY

Variants of: B1
Assay: abundance fitness (aPCA) (normalised: wild type 0, dead -1); higher = more abundant; growth selection in yeast, the domain comes from the species named
Details: Homo sapiens

**Q.** For GYRKEQERLGIPYDPIQWSTDQVLHWVVWVMKEFSMTDIDLTTLNISGRELCSLNQEDFFARVPRGEILWSHLELLRKY [Q61A], which abundance fitness is on record?
**A.** Its abundance fitness is -0.014 ± 0.038.

**Q.** Which abundance fitness does the source give for GYRKEQERLGIPYDPIQWSTDQVLHWVVWVMKEFSMTDIDLTTLNISGRELCSLNQEDFFTRVPRGEILWSHLELLRKY [Q61T] here?
**A.** Its abundance fitness is 0.014 ± 0.053.

**Q.** With GYRKEQERLGIPYDPIQWSTDQVLHWVVWVMKEFSMTDIDLTTLNISGRELCSLNQEDFFRRVPRGEILWSHLELLRKY [Q61R] as the variant, how does the abundance fitness read?
**A.** The abundance fitness was -0.011 ± 0.029.

**Q.** Which abundance fitness does the source give for GYRKEQERLGIPYDPIQWSTDQVLHWVVWVMKEFSMTDIDLTTLNISGRELCSLNQEDFFYRVPRGEILWSHLELLRKY [Q61Y] here?
**A.** Its abundance fitness is -0.203 ± 0.13.

**Q.** For GYRKEQERLGIPYDPIQWSTDQVLHWVVWVMKEFSMTDIDLTTLNISGRELCSLNQEDFFDRVPRGEILWSHLELLRKY [Q61D], which abundance fitness is on record?
**A.** The abundance fitness was -0.155 ± 0.088.

**Q.** Which abundance fitness does the source give for GYRKEQERLGIPYDPIQWSTDQVLHWVVWVMKEFSMTDIDLTTLNISGRELCSLNQEDFFMRVPRGEILWSHLELLRKY [Q61M] here?
**A.** Its abundance fitness is -0.022 ± 0.06.

**Q.** With GYRKEQERLGIPYDPIQWSTDQVLHWVVWVMKEFSMTDIDLTTLNISGRELCSLNQEDFFLRVPRGEILWSHLELLRKY [Q61L] as the variant, how does the abundance fitness read?
**A.** The abundance fitness was -0.009 ± 0.049.

**Q.** Which abundance fitness does the source give for GYRKEQERLGIPYDPIQWSTDQVLHWVVWVMKEFSMTDIDLTTLNISGRELCSLNQEDFFSRVPRGEILWSHLELLRKY [Q61S] here?
**A.** The abundance fitness was 0.004 ± 0.045.

**Q.** Which abundance fitness does the source give for GYRKEQERLGIPYDPIQWSTDQVLHWVVWVMKEFSMTDIDLTTLNISGRELCSLNQEDFFKRVPRGEILWSHLELLRKY [Q61K] here?
**A.** The abundance fitness was -0.016 ± 0.14.

**Q.** With GYRKEQERLGIPYDPIQWSTDQVLHWVVWVMKEFSMTDIDLTTLNISGRELCSLNQEDFFERVPRGEILWSHLELLRKY [Q61E] as the variant, how does the abundance fitness read?
**A.** Its abundance fitness is -0.041 ± 0.059.

**Q.** With GYRKEQERLGIPYDPIQWSTDQVLHWVVWVMKEFSMTDIDLTTLNISGRELCSLNQEDFFIRVPRGEILWSHLELLRKY [Q61I] as the variant, how does the abundance fitness read?
**A.** The abundance fitness was -0.178 ± 0.11.

**Q.** For GYRKEQERLGIPYDPIQWSTDQVLHWVVWVMKEFSMTDIDLTTLNISGRELCSLNQEDFFPRVPRGEILWSHLELLRKY [Q61P], which abundance fitness is on record?
**A.** Its abundance fitness is -0.777 ± 0.12.

**Q.** Which abundance fitness does the source give for GYRKEQERLGIPYDPIQWSTDQVLHWVVWVMKEFSMTDIDLTTLNISGRELCSLNQEDFFGRVPRGEILWSHLELLRKY [Q61G] here?
**A.** The abundance fitness was -0.029 ± 0.033.

**Q.** With GYRKEQERLGIPYDPIQWSTDQVLHWVVWVMKEFSMTDIDLTTLNISGRELCSLNQEDFFVRVPRGEILWSHLELLRKY [Q61V] as the variant, how does the abundance fitness read?
**A.** Its abundance fitness is -0.01 ± 0.042.

**Q.** Which abundance fitness does the source give for GYRKEQERLGIPYDPIQWSTDQVLHWVVWVMKEFSMTDIDLTTLNISGRELCSLNQEDFFWRVPRGEILWSHLELLRKY [Q61W] here?
**A.** Its abundance fitness is -0.298 ± 0.043.

**Q.** For GYRKEQERLGIPYDPIQWSTDQVLHWVVWVMKEFSMTDIDLTTLNISGRELCSLNQEDFFCRVPRGEILWSHLELLRKY [Q61C], which abundance fitness is on record?
**A.** Its abundance fitness is -0.091 ± 0.075.

**Q.** For GYRKEQERLGIPYDPIQWSTDQVLHWVVWVMKEFSMTDIDLTTLNISGRELCSLNQEDFVQRVPRGEILWSHLELLRKY [F60V], which abundance fitness is on record?
**A.** Its abundance fitness is 0.049 ± 0.037.

**Q.** Which abundance fitness does the source give for GYRKEQERLGIPYDPIQWSTDQVLHWVVWVMKEFSMTDIDLTTLNISGRELCSLNQEDFYQRVPRGEILWSHLELLRKY [F60Y] here?
**A.** Its abundance fitness is -0.06 ± 0.1.

**Q.** With GYRKEQERLGIPYDPIQWSTDQVLHWVVWVMKEFSMTDIDLTTLNISGRELCSLNQEDFRQRVPRGEILWSHLELLRKY [F60R] as the variant, how does the abundance fitness read?
**A.** Its abundance fitness is 0.003 ± 0.04.

**Q.** Which abundance fitness does the source give for GYRKEQERLGIPYDPIQWSTDQVLHWVVWVMKEFSMTDIDLTTLNISGRELCSLNQEDFWQRVPRGEILWSHLELLRKY [F60W] here?
**A.** The abundance fitness was -0.211 ± 0.051.

**Q.** Which abundance fitness does the source give for GYRKEQERLGIPYDPIQWSTDQVLHWVVWVMKEFSMTDIDLTTLNISGRELCSLNQEDFSQRVPRGEILWSHLELLRKY [F60S] here?
**A.** Its abundance fitness is 0 ± 0.051.

**Q.** With GYRKEQERLGIPYDPIQWSTDQVLHWVVWVMKEFSMTDIDLTTLNISGRELCSLNQEDFTQRVPRGEILWSHLELLRKY [F60T] as the variant, how does the abundance fitness read?
**A.** The abundance fitness was -0.044 ± 0.061.

**Q.** For GYRKEQERLGIPYDPIQWSTDQVLHWVVWVMKEFSMTDIDLTTLNISGRELCSLNQEDFFQHVPRGEILWSHLELLRKY [R62H], which abundance fitness is on record?
**A.** The abundance fitness was -0.213 ± 0.16.

**Q.** Which abundance fitness does the source give for GYRKEQERLGIPYDPIQWSTDQVLHWVVWVMKEFSMTDIDLTTLNISGRELCSLNQEDFFQDVPRGEILWSHLELLRKY [R62D] here?
**A.** The abundance fitness was -0.797 ± 0.35.

**Q.** With GYRKEQERLGIPYDPIQWSTDQVLHWVVWVMKEFSMTDIDLTTLNISGRELCSLNQEDFFQGVPRGEILWSHLELLRKY [R62G] as the variant, how does the abundance fitness read?
**A.** The abundance fitness was -0.426 ± 0.06.

**Q.** With GYRKEQERLGIPYDPIQWSTDQVLHWVVWVMKEFSMTDIDLTTLNISGRELCSLNQEDFFQFVPRGEILWSHLELLRKY [R62F] as the variant, how does the abundance fitness read?
**A.** Its abundance fitness is -0.192 ± 0.068.

**Q.** Which abundance fitness does the source give for GYRKEQERLGIPYDPIQWSTDQVLHWVVWVMKEFSMTDIDLTTLNISGRELCSLNQEDFFQMVPRGEILWSHLELLRKY [R62M] here?
**A.** The abundance fitness was 0.07 ± 0.06.

**Q.** With GYRKEQERLGIPYDPIQWSTDQVLHWVVWVMKEFSMTDIDLTTLNISGRELCSLNQEDFFQCVPRGEILWSHLELLRKY [R62C] as the variant, how does the abundance fitness read?
**A.** The abundance fitness was -0.143 ± 0.055.

**Q.** With GYRKEQERLGIPYDPIQWSTDQVLHWVVWVMKEFSMTDIDLTTLNISGRELCSLNQEDFFQKVPRGEILWSHLELLRKY [R62K] as the variant, how does the abundance fitness read?
**A.** The abundance fitness was -0.014 ± 0.089.

**Q.** With GYRKEQERLGIPYDPIQWSTDQVLHWVVWVMKEFSMTDIDLTTLNISGRELCSLNQEDFFQQVPRGEILWSHLELLRKY [R62Q] as the variant, how does the abundance fitness read?
**A.** The abundance fitness was -0.106 ± 0.074.

**Q.** For GYRKEQERLGIPYDPIQWSTDQVLHWVVWVMKEFSMTDIDLTTLNISGRELCSLNQEDFFQLVPRGEILWSHLELLRKY [R62L], which abundance fitness is on record?
**A.** The abundance fitness was 0.008 ± 0.037.

**Q.** For GYRKEQERLGIPYDPIQWSTDQVLHWVVWVMKEFSMTDIDLTTLNISGRELCSLNQEDFFQAVPRGEILWSHLELLRKY [R62A], which abundance fitness is on record?
**A.** Its abundance fitness is -0.132 ± 0.16.

**Q.** Which abundance fitness does the source give for GYRKEQERLGIPYDPIQWSTDQVLHWVVWVMKEFSMTDIDLTTLNISGRELCSLNQEDFFQEVPRGEILWSHLELLRKY [R62E] here?
**A.** Its abundance fitness is -0.197 ± 0.083.

**Q.** With GYRKEQERLGIPYDPIQWSTDQVLHWVVWVMKEFSMTDIDLTTLNISGRELCSLNQEDFFQSVPRGEILWSHLELLRKY [R62S] as the variant, how does the abundance fitness read?
**A.** The abundance fitness was -0.156 ± 0.028.

**Q.** With GYRKEQERLGIPYDPIQWSTDQVLHWVVWVMKEFSMTDIDLTTLNISGRELCSLNQEDFFQPVPRGEILWSHLELLRKY [R62P] as the variant, how does the abundance fitness read?
**A.** The abundance fitness was -1.06 ± 0.13.

From the Human Domainome abundance scans (Beltran et al. 2025)
